T1: human CD19 (human, UniProt P15391 20-556)
T1 construct: whole, on cells; also called huCD19; hCD19
T1 sequence (looked up): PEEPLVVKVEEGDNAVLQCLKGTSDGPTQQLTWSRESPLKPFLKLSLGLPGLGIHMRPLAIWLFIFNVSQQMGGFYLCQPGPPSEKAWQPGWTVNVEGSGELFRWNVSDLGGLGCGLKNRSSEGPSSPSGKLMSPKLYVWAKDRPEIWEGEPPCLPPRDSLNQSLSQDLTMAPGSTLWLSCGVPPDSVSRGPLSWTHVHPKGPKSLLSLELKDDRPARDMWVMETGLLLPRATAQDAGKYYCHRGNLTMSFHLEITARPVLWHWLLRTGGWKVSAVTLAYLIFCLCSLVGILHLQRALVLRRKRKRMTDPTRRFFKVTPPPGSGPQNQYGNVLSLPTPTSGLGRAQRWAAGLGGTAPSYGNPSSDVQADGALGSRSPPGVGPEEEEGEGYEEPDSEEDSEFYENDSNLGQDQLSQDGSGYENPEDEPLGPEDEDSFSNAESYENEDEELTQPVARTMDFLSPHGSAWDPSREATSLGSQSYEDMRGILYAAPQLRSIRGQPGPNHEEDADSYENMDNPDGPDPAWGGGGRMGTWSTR

B1: Human CD2 (recombinant extracellular domain, Avi-tagged) (receptor)
chain: KEITNALETWGALGQDINLDIPSFQMSDDIDDIKWEKTSDKKKIAQFRKEKETFKEKDTYKLFKNGTLKIKHLKTDDQDIYKVSIYDTKGKNVLEKIFDLKIQERVSKPKISWTCINTTLTCEVMNGTDPELNLYQDGKHLKLSQRVITHKWTTSLSAKFKCTAGNKVSKESSVEPVSCPEKGLD
modifications: site selectively biotinylated during expression (C-terminal Avi-Tag, BirA co-transfection)
notes: Produced in HEK293 cells; also called recombinant human CD2
B2: CD58 Full ECD (ligand)
chain: SQQIYGVVYGNVTFHVPSNVPLKEVLWKKQKDKVAELENSEFRAFSSFKNRVYLDTVSGSLTIYNLTSSDEDEYEMESPNITDTMKFFLYVLESLPSPTLTCALTNGSIEVQCMIPEHYNSHRGLIMYSWDCPMEQCKRNSTSIYFKMENDLPQKIQCTLSNPLFNTTSSIILTTCIPSSGHSRHRGGGGSHHHHHHHH

What was measured:
human CD19 [1] = target: T1, human CD19; assay: flow cytometry on murine 300.19 cells overexpressing human CD19; serial dilutions; anti-human Fc Alexa-647 secondary
human CD19 [2] = target: T1, human CD19; assay: flow cytometry on 300.19 cells overexpressing human CD19 (figure legend)
CD58 Full ECD = target: B2; assay: ITC; 100 uM CD2 titrated into 10 uM CD58 variant in HBS
Method: (§1) To ensure the binding affinity remained uncompromised by the additional of the stabilizing disulfide variance, isothermal calorimetry (ITC) was performed on the resulting recombinant CD58 proteins to determine their apparent KD and binding stoicheometry (n) to recombinant human CD2.
(§2) Briefly, recombinant human CD2 and recombinant human CD58 variants were dialyzed into HEPES-buffered saline (HBS). CD2 was diluted to final concentration of 100 μM, CD58 variants were diluted to 10 μM. CD2 was titrated into 10 μM of CD58 variants via multiple injections and ΔH (kcal/mole) determined using a MicroCal VP-ITC isothermal titration calorimeter (Malvern). Titrations of CD2 into HBS were used as a reference and KD and n determined from the resulting data.

[3] = target: B1; assay: as above
Method: as §1, §2

Binder | n (binding stoichiometry) [3] | Kd [3] | further results
CD3hi TSP2 (R variant) (other, also called CD19_NEG218_CD3_16nM-CD58 Trispecific; αCD19(NEG218)-αCD3-CD58IgV) heavy: EVQLVQSGAEVKKPGESLKISCKASGYSFTNYWMNWVRQMPGKGLEWMGMIHPSDSEIRLNQKFQGQVTLSVDKSIGTAYMQWSSLKASDTAMYYCSRWYYLSSPMDYWGQGTTVTVSSASTKGPSVFPLAPSSKSTSGGTAALGCLVKDYFPEPVTVSWNSGALTSGVHTFPAVLQSSGLYSLSSVVTVPSSSLGTQTYICNVNHKPSNTKVDKRVEPKSCGGGGSGGGGSEVQLVESGGGLVQPGGSLKLSCAASGFTFNTYAMNWVRQASGKGLEWVGRIRSKYNNYATYYADSVKDRFTISRDDSKSTLYLQMNSLKTEDTAVYYCVRHGNFGNSYVSWFAYWGQGTLVTVSSGGGGSGGGGSGGGGSGGGGSQAVVTQEPSLTVSPGGTVTLTCRSSTGAVTTSNYANWVQQKPGQAPRGLIGGTNKRAPWTPARFSGSLLGDKAALTLSGAQPEDEAEYFCALWYSNLWVFGGGTKLTVLGGGGSDKTHTCPPCPAPELLGGPSVFLFPPKPKDTLMISRTPEVTCVVVAVSHEDPEVKFNWYVDGVEVHNAKTKPREEQYASTYRVVSVLTVLHQDWLNGKEYKCKVSNKALAAPIEKTISKAKGQPREPQVCTLPPSREEMTKNQVSLSCAVKGFYPSDIAVEWESNGQPENNYKTTPPVLDSDGSFFLVSKLTVDKSRWQQGNVFSCSVMHEALHNHYTQKSLSLSPGK light: not shown SQQIYGVVYGNVTFHVPSNVPLKEVLWKKQKDKVAELENSEFRAFSSFKNRVYLDTVSGSLTIYNLTSSDEDEYEMESPNITDTMKFFLYVLESGGGGSDKTHTCPPCPAPELLGGPSVFLFPPKPKDTLMISRTPEVTCVVVAVSHEDPEVKFNWYVDGVEVHNAKTKPREEQYASTYRVVSVLTVLHQDWLNGKEYKCKVSNKALAAPIEKTISKAKGQPREPQVYTLPPCREEMTKNQVSLWCLVKGFYPSDIAVEWESNGQPENNYKTTPPVLDSDGSFFLYSKLTVDKSRWQQGNVFSCSVMHEALHNRYTQKSLSLSPGK |  |  | binding result (human CD19 [1]): binds
CD3hi TSP1 (R variant) (other, also called CD19_NEG258_CD3_16nM-CD58 Trispecific; αCD19(NEG258)-αCD3(16 nM)-αCD58IgV) heavy: QVQLVQSGAEVKKPGASVKVSCKASGYTFTTYWIQWVRQAPGQRLEWMGAVYPGDADTRYTQKFQGRVTLTADRSASTAYMELSSLRSEDTAVYYCGRDAGLEYYALDYWGQGTLVTVSSASTKGPSVFPLAPSSKSTSGGTAALGCLVKDYFPEPVTVSWNSGALTSGVHTFPAVLQSSGLYSLSSVVTVPSSSLGTQTYICNVNHKPSNTKVDKRVEPKSCGGGGSGGGGSEVQLVESGGGLVQPGGSLKLSCAASGFTFNTYAMNWVRQASGKGLEWVGRIRSKYNNYATYYADSVKDRFTISRDDSKSTLYLQMNSLKTEDTAVYYCVRHGNFGNSYVSWFAYWGQGTLVTVSSGGGGSGGGGSGGGGSGGGGSQAVVTQEPSLTVSPGGTVTLTCRSSTGAVTTSNYANWVQQKPGQAPRGLIGGTNKRAPWTPARFSGSLLGDKAALTLSGAQPEDEAEYFCALWYSNLWVFGGGTKLTVLGGGGSDKTHTCPPCPAPELLGGPSVFLFPPKPKDTLMISRTPEVTCVVVAVSHEDPEVKFNWYVDGVEVHNAKTKPREEQYASTYRVVSVLTVLHQDWLNGKEYKCKVSNKALAAPIEKTISKAKGQPREPQVCTLPPSREEMTKNQVSLSCAVKGFYPSDIAVEWESNGQPENNYKTTPPVLDSDGSFFLVSKLTVDKSRWQQGNVFSCSVMHEALHNHYTQKSLSLSPGK light: not shown SQQIYGVVYGNVTFHVPSNVPLKEVLWKKQKDKVAELENSEFRAFSSFKNRVYLDTVSGSLTIYNLTSSDEDEYEMESPNITDTMKFFLYVLESGGGGSDKTHTCPPCPAPELLGGPSVFLFPPKPKDTLMISRTPEVTCVVVAVSHEDPEVKFNWYVDGVEVHNAKTKPREEQYASTYRVVSVLTVLHQDWLNGKEYKCKVSNKALAAPIEKTISKAKGQPREPQVYTLPPCREEMTKNQVSLWCLVKGFYPSDIAVEWESNGQPENNYKTTPPVLDSDGSFFLYSKLTVDKSRWQQGNVFSCSVMHEALHNRYTQKSLSLSPGK |  |  | binding result (human CD19 [2]): binds
B1 |  |  | Kd (CD58 Full ECD): 570 nM
B2 | 0.92 |  | 
CD58_IgV (ligand, also called CD58 domain 1; IgV WT) SQQIYGVVYGNVTFHVPSNVPLKEVLWKKQKDKVAELENSEFRAFSSFKNRVYLDTVSGSLTIYNLTSSDEDEYEMESPNITDTMKFFLYVLESGGGGSHHHHHHHH | 0.96 | 610 nM | 
CD58 IgV V54C_G88C (ligand, Disulfide-stabilized variant) SQQIYGVVYGNVTFHVPSNVPLKECLWKKQKDKVAELENSEFRAFSSFKNRVYLDTVSCSLTIYNLTSSDEDEYEMESPNITDTMKFFLYVLESGGGGSHHHHHHHH | 0.83 | 600 nM | 
CD58 IgV V45C_M114C (ligand, Disulfide-stabilized variant) SQQIYGVVYGNVTFHCPSNVPLKEVLWKKQKDKVAELENSEFRAFSSFKNRVYLDTVSGSLTIYNLTSSDEDEYEMESPNITDTCKFFLYVLESGGGGSHHHHHHHH | 0.88 | 380 nM | 
CD58 IgV V45C_M105C (ligand, Disulfide-stabilized variant) SQQIYGVVYGNVTFHCPSNVPLKEVLWKKQKDKVAELENSEFRAFSSFKNRVYLDTVSGSLTIYNLTSSDEDEYECESPNITDTMKFFLYVLESGGGGSHHHHHHHH | 0.97 | 880 nM | 
